Test results as given in patent publication US20180265572A1 (Bristol-Myers Squibb, published 2018).
Values belong to the binder of their own block, whether it stands above or below them.

Experiments:
human IGF-IR on cells [1] = biological target: T1, human IGF-IR on cells (human, UniProt P08069 31-1367); test: cell-based or functional assay
[2] = biological target: VEGFR2 fusion protein on Ba/F3 cells (extracellular domain of hVEGFR2 and intracellular domain of hEpoR) (human, UniProt P35968 20-764; P19235 274-508, limits assumed); test: cell-based or functional assay
VEGFR2-Fc (R&D Systems) [3] = biological target: T2, VEGFR2-Fc (R&D Systems) (UniProt P35968 20-764); test: SPR (Biacore), VEGFR2-Fc immobilised directly on a CM5 chip, binder in solution; V2B domain; VEGFR2-Fc; average
T2 construct: Bought reagent; not shown: Fc part of the bought fusion; not described
Description: (§1) A concentration series of the midscale purification of the tandem construct 385A08-Fn-V2B (non pegylated, his-tagged version, SEQ ID NO: 8) was also evaluated. The functionality of each of the domains of this construct, specifically, the V2B domain, and the IGF-IR domain, was evaluated as described in the materials and methods section below.
(§2) The functionality of the V2B domain was assessed by evaluating a concentration series of the midscale and large scale purification of the tandem construct 385A08-Fn-V2B (pegylated, and non-pegylated versions, his-tag and non-his-tag versions) vs. VEGFR2-Fc that was directly immobilized on a CM5 chip surface (GE, Piscataway, N.J.). VEGFR2-Fc (R&D Systems, MN) was diluted to 12 ug/mL in 50 mM Acetate pH 5.0 for an immobilization level of ˜1300 RU. Varying concentrations of 385A08-Fn-V2B in the solution phase were monitored for association (2 minutes) and dissociation (10 minutes) kinetics at a flow rate of 50 uL/min. Two 30 second injections of 50 mM glycine pH 1.7 were used to regenerate the surface.

human IGF-IR-Fc fusion [4] = biological target: T3, human IGF-IR-Fc fusion (human, UniProt P08069 31-932); test: SPR (Biacore), IGF-IR-Fc captured on Protein A/G, HTPP purified binder in solution, n=1, KD approximate
T3 construct: range 1-932; If it counts on the precursor, it includes the signal peptide; also called IGF1R-Fc; not shown: hinge and constant regions of human IgG

VEGFR2-Fc (R&D Systems) [5] = biological target: T2, VEGFR2-Fc (R&D Systems); test: SPR (Biacore), VEGFR2-Fc immobilised directly on a CM5 chip, binder in solution; V2B domain; VEGFR2-Fc
Description: as §2

human IGF-IR-Fc fusion [6] = biological target: T3, human IGF-IR-Fc fusion; test: SPR (Biacore), IGF-IR-Fc captured on anti-human IgG, binder in solution (n of 1); IGF-IR domain; IGF-IR-Fc; n of 1
Description: as §1
Another method to assess the functionality of the IGF-IR domain is to capture the IGF—IR-Fc on anti-human IgG (GE, Piscataway, N.J.). This was done for the midscale purified construct 385A08-Fn-V2B (non-pegylated, his-tag) as described in Example 5 above. The anti-human IgG was immobilized on flow cells 1 and 2 of a CM5 chip surface according the manufacturer's instructions. 100 nM human IGF—IR-Fc was injected for 2 minutes at 10 ul/min on flow cell 2. Subsequently a concentration series of the midscale prep was injected across both flow cell surfaces at 50 uL/min. Two injections of 50 mM Glycine pH 1.7 were used to regenerate the surface.

human IGF-IR-Fc fusion [7] = biological target: T3, human IGF-IR-Fc fusion; test: SPR (Biacore T100), IGF-IR-Fc captured on Protein A; average over constructs; average over midscale and large scale material, with and without his tag; IGF1R
Description: (§3) Affinity data was also measured from midscale and large scale material, for the pegylated version of the tandem construct 385A08-Fn-V2B-cys (SEQ ID NO: 9, with and without his tag). The specific materials and methods for these calculations are described below.
(§4) An alternative method is to capture the IGF—IR-Fc on Protein A. This method was used for calculating the affinity and kinetics of certain versions of the construct 385A08-Fn-V2B-cys (both pegylated and non-pegylated and with or without his tag) from midscale and large scale materials. Specifically, IGF—IR-Fc was captured on Protein A immobilized on a Biacore CM5 sensor chip by amine coupling. VEGFR2-Fc was immobilized directly on a CM5 chip by amine coupling. The affinity and kinetic analysis involved the capture of IGF—IR-Fc on Protein A followed by injection of the tandem adnectin in solution over IGF—IR-Fc and VEGFR2-Fc. The analytical surface was regenerated between samples with glycine pH 1.5. Sensorgrams were obtained at each concentration and were evaluated using Biacore T100 evaluation software to determine the rate constants kₐ (kₒₙ) and kd (koff).

VEGFR2-Fc (R&D Systems) [8] = biological target: T2, VEGFR2-Fc (R&D Systems); test: SPR (Biacore T100), VEGFR2-Fc immobilised directly on a CM5 chip; average over constructs; average over midscale and large scale material, with and without his tag; VEGFR2-Fc
Description: as §3
as §4, with “The affinity and kinetic analysis involved the capture of IGF—IR-Fc on Protein A followed by injection of the tandem adnectin in solution over IGF—IR-Fc and VEGFR2-Fc. The analytical surface was regenerated between samples with glycine pH 1.5.” left out
as §2, with “VEGFR2-Fc (R&D Systems, MN) was diluted to 12 ug/mL in 50 mM Acetate pH 5.0 for an immobilization level of ˜1300 RU.” left out, “Two 30 second injections of 50 mM glycine pH 1.7 were used to regenerate the surface.” left out

human IGF-IR-Fc fusion [9] = biological target: T3, human IGF-IR-Fc fusion; test: SPR (Biacore T100), IGF-IR-Fc captured on Protein A; average over constructs; average over midscale and large scale material, with and without his tag; IGF1R-Fc
Description: as §3, §4

VEGFR2-Fc (R&D Systems) [10] = biological target: T2, VEGFR2-Fc (R&D Systems); test: SPR (Biacore T100), VEGFR2-Fc immobilised directly on a CM5 chip; average over constructs; average over midscale and large scale material, with and without his tag; VEGFR2
Description: as §3
as §4, with “The affinity and kinetic analysis involved the capture of IGF—IR-Fc on Protein A followed by injection of the tandem adnectin in solution over IGF—IR-Fc and VEGFR2-Fc. The analytical surface was regenerated between samples with glycine pH 1.5.” left out
as §2, with “VEGFR2-Fc (R&D Systems, MN) was diluted to 12 ug/mL in 50 mM Acetate pH 5.0 for an immobilization level of ˜1300 RU.” left out, “Two 30 second injections of 50 mM glycine pH 1.7 were used to regenerate the surface.” left out

human IGF-IR on cells [11] = biological target: T1, human IGF-IR on cells; test: cell-based or functional assay; remark: listed apart in the source
human IGF-IR on cells [12] = biological target: T1, human IGF-IR on cells; test: competitive blocking assay on R+ cells overexpressing human IGF-IR; competitor 200 nM IRDye 800CW-labelled AT580-PEG20-AT580
Description: Certain tandem constructs were evaluated for their ability to compete with mono-specific IGF-IR and VEGFR-2 binders in vitro.
R⁺, a gift from Renato Baserga (Thomas Jefferson University, Philadelphia, Pa.), is a mouse embryo fibroblast overexpressing human IGF-IR in the context of a deletion in the mouse IGF-IR gene. Cells were plated in 96 well plates at a concentration of 20,000 cells per well in DMEM (Invitrogen, Carlsbad, Calif.) containing 5% calf serum (Hyclone, Logan, Utah). The following day, cells were washed twice in serum free DMEM containing 0.1% BSA (Invitrogen, Carlsbad, Calif.). After the washes, the cells were incubated at 4° C. for 10 minutes in binding buffer (serum free DMEM+0.1% BSA) containing increasing concentrations of IGF-IR antagonists or controls. Typical controls included the mono-specific ¹⁰Fn3-based IGF-IR binder (AT580-PEG40, SEQ ID NO: 27) (positive control) or the mono-specific ¹⁰Fn3-based VEGFR2 binder (Peg-V2Bshort, SEQ ID NO: 28) (negative control). Following this brief exposure to antagonists, R⁺ cells were additionally exposed to 200 nM of a bi-valent ¹⁰Fn3-based IGF-IR binder (AT580-PEG20-AT580, SEQ ID NO: 27) labeled with IRDye 800CW according to the manufacturer instructions (Li-Cor Biosciences, Lincoln, Nebr.). […] The resulting data was analyzed using GraphPad Prism (GraphPad Software, La Jolla, Calif.).

human IGF-IR-Fc fusion [13] = biological target: T3, human IGF-IR-Fc fusion; test: SPR (Biacore), binding to IGF-IR-Fc, n=1

B1: 385A08-Fn-V2B (non pegylated, his-tagged version) (designed binder)
chain: GVSDVPRDLEVVAATPTSLLISWSARLKVARYYRITYGETGGNSPVQEFTVPKNVYTATISGLKPGVDYTITVYAVTRFRDYQPISINYRTEIDKPSTSTSTVSDVPRDLEVVAATPTSLLISWRHPHFPTRYYRITYGETGGNSPVQEFTVPLQPPTATISGLKPGVDYTITVYAVTDGRNGRLLSIPISINYRTEIDKPSQHHHHHH
notes: also called 385A08-Fn-V2B (Ser tail); 385A08-Fn-V2B (with his tag)
- IC50, inhibition of proliferation of Rh41 cells (n=1) (human IGF-IR on cells [1]): 26 nM
- IC50, inhibition of VEGF-A dependent proliferation of Ba/F3 cells [2]: 1 nM
- koff (VEGFR2-Fc (R&D Systems) [3]): 0.00045 s⁻¹
- kon (VEGFR2-Fc (R&D Systems) [3]): 1.4e+06 M⁻¹ s⁻¹
- Kd (human IGF-IR-Fc fusion [4]): ~0.3 nM
- Kd (VEGFR2-Fc (R&D Systems) [5]): ~0.3 nM
- Kd (human IGF-IR-Fc fusion [6]): ~0.02 nM
- koff (human IGF-IR-Fc fusion [6]): 0.00017 s⁻¹
- kon (human IGF-IR-Fc fusion [6]): 1.1e+07 M⁻¹ s⁻¹

B2: pegylated version of the tandem construct 385A08-Fn-V2B-cys (with and without his tag) (designed binder)
chain: MGVSDVPRDLEVVAATPTSLLISWSARLKVARYYRITYGETGGNSPVQEFTVPKNVYTATISGLKPGVDYTITVYAVTRFRDYQPISINYRTEIDKPSTSTSTVSDVPRDLEVVAATPTSLLISWRHPHFPTRYYRITYGETGGNSPVQEFTVPLQPPTATISGLKPGVDYTITVYAVTDGRNGRLLSIPISINYRTEIDKPCQ
modifications: PEG on the single cysteine at position 203
notes: also called the various constructs tested
- Kd (human IGF-IR-Fc fusion [7]): 0.84 nM
- koff (VEGFR2-Fc (R&D Systems) [8]): 0.000102 s⁻¹
- kon (VEGFR2-Fc (R&D Systems) [8]): 11500 M⁻¹ s⁻¹
- koff (human IGF-IR-Fc fusion [9]): 0.000247 s⁻¹
- kon (human IGF-IR-Fc fusion [9]): 315000 M⁻¹ s⁻¹
- Kd (VEGFR2-Fc (R&D Systems) [10]): 10.5 nM

Other lines, results leading:

- IC50 for inhibition of pIGF-1R activity, Western blot, HMVEC-L cells stimulated with VEGF and IGF-1 (human IGF-IR on cells [11]): 100 nM
- IC50 (human IGF-IR on cells [12]): 600 nM
B3: AT580-PEG40 (designed binder)
chain: MGVSDVPRDLEVVAATPTSLLISWSARLKVARYYRITYGETGGNSPVQEFTVPKNVYTATISGLKPGVDYTITVYAVTRFRDYQPISINYRTEIDKPCQ
modifications: 40 kDa PEG at position 98 (cysteine)

- Kd (human IGF-IR-Fc fusion [13]): 0.076 nM
B4: AT577 (designed binder)
chain: MGVSDVPRDLEVVAATPTSLLISWSARLKVARYYRITYGETGGNSPVQEFTVPKNVYTATISGLKPGVDYTITVYAVTRFRDYQPISINYRTEIDKPSQ
